Where a chain is given by its changes, count along the chain named. Numbers in names are those of the source. Like-named read-outs stand apart in the source and are kept apart here. Values belong to the binder of their own block, whether it stands above or below them.
Assays:
[1] = target: T1, human OX40L protein (OX40L-his), Acro Biosystems Cat #OXL-H52Q8 (human, UniProt P23510 51-183); assay: cell-based or functional assay
T1 sequence: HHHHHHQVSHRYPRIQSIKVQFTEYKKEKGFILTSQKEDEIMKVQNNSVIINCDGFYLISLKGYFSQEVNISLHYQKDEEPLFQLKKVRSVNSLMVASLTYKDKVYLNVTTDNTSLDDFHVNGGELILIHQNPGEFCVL

[2] = target: T1, human OX40L protein (OX40L-his), Acro …; assay: SPR (Biacore T200), antibody captured by anti-hFc on CM5 chip, antigen as analyte
Description: A surface plasmon resonance (SPR) analysis was performed by using Bicore T200, and a running buffer used was HBS-EP (10 mM HEPES, pH7.4, 150 mM NaCl, 3 mM EDTA, […] surfactant P20). A human antibody capture kit (anti-hFc antibody) was fixed onto a surface of CM5 chip through an amine coupling method. […] An analytical sample was prepared with high purity/high concentration so that the minimum dilution factor could be 100 or more, thereby minimizing a buffer effect.

[3] = target: human TNFα (TNF-H5228 of Acro Biosystems) (human, UniProt P01375 77-233); assay: cell-based or functional assay
[4] = target: T1, human OX40L protein (OX40L-his), Acro …; assay: cell-based or functional assay; remark: listed apart in the source

Sequence of human TNFα (TNF-H5228 of Acro Biosystems) (P01375 77-233 limits assumed): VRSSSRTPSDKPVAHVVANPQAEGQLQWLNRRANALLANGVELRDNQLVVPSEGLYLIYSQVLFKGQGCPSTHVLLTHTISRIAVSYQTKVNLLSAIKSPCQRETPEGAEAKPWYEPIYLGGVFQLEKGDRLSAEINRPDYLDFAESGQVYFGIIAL

B1: reference anti-OX40L antibody O4L (VH and VL of oxelumab) (antibody, human IgG4 S228P, kappa, V domains shown)
VH: EVQLLESGGGLVQPGGSLRLSCAASGFTFNSYAMSWVRQAPGKGLEWVSIISGSGGFTYYADSVKGRFTISRDNSRTTLYLQMNSLRAEDTAVYYCAKDRLVAPGTFDYWGQGALVTVSS
VL: DIQMTQSPSSLSASVGDRVTITCRASQGISSWLAWYQQKPEKAPKSLIYAASSLQSGVPSRFSGSGSGTDFTLTISSLQPEDFATYYCQQYNSYPYTFGQGTKLEIKR
IC50 (nM), OX40L blockade assay (luminescence of NFκB-luc2/OX40 Jurkat cells) [1]: 1.95 nM
IC50(µg/mL), OX40L blockade assay (luminescence of NFκB-luc2/OX40 Jurkat cells) [1]: 0.293 µg/mL

B3: bispecific antibody I3F07-TNFαi HC (bispecific antibody)
heavy: not shown
light: DIVLTQSPLSLPVSLGDQASISCRSSQSLVHSNGNTYLHWYLQKPGQSPKLLIYKVSNRFSGVPDRFSGSGSGTDFTLKISRVEAEDLGVYFCSQSTHVPPTFGGGSKLEIKRTVAAPSVFIFPPSDEQLKSGTASVVCLLNNFYPREAKVQWKVDNALQSGNSQESVTEQDSKDSTYSLSSTLTLSKADYEKHKVYACEVTHQGLSSPVTKSFNRGEC
IC50 (nM), TNFα blockade assay (luminescence of NFκB-RE HEK293 cells) [3]: 0.055 nM
IC50 (nM), OX40L blockade assay (luminescence of NFκB-luc2/OX40 Jurkat cells) [4]: 0.91 nM

B5: anti-OX40L antibody 21G07 (antibody, human IgG4 S228P, kappa, V domains shown)
VH: QVQLQQSGAELVKPGASVKLSCKASGYTFTNYWMQWVKQRPGQGLEWIGEIDPSDGRTNYNEKFKNKATLTVDRSSSTAYIKLSSLTSEDSAVYYCAREVSLRSMDYWGQGTSVTVSS
VL: DIVLTQSPLSLPVSLGDQASISCRSSQSLVHSNGNTYLHWYLQKPGQSPKLLIYKVSNRFSGVPDRFSGSGSGTDFTLKISRVEAEDLGVYFCSQSTHVPFTFGSGTKLEIKR
notes: Chimeric; IgG4 S228P / kappa
Kd [2]: 603 pM
koff [2]: 0.00065 s⁻¹
kon [2]: 1.08e+06 M⁻¹ s⁻¹
IC50 (nM), OX40L blockade assay (luminescence of NFκB-luc2/OX40 Jurkat cells) [1]: 0.85 nM
IC50(µg/mL), OX40L blockade assay (luminescence of NFκB-luc2/OX40 Jurkat cells) [1]: 0.128 µg/mL

B7: bispecific antibody 02C09-TNFαi HC (bispecific antibody)
heavy: not shown
light: DIQMTQSPSSLSASLGDRVTITCRASQSIGRWLAWYQQKPGNAPKLLIYKATILESGVPSRFSGSGSGTEFALTISSLQPDDFSAYYCQQYNSYPYTFGQGTKLEIKRTVAAPSVFIFPPSDEQLKSGTASVVCLLNNFYPREAKVQWKVDNALQSGNSQESVTEQDSKDSTYSLSSTLTLSKADYEKHKVYACEVTHQGLSSPVTKSFNRGEC
Kd [2]: 472 pM
IC50 (nM), OX40L blockade assay (luminescence of NFκB-luc2/OX40 Jurkat cells) [1]: 0.59 nM
IC50(µg/mL), OX40L blockade assay (luminescence of NFκB-luc2/OX40 Jurkat cells) [1]: 0.117 µg/mL

Now from value to binder:

Kd [2]: 450 pM
IC50 (nM), OX40L blockade assay (luminescence of NFκB-luc2/OX40 Jurkat cells) [1]: 0.21 nM
IC50(µg/mL), OX40L blockade assay (luminescence of NFκB-luc2/OX40 Jurkat cells) [1]: 0.041 µg/mL
B2: bispecific antibody Hu3F07-TNFαi HC (bispecific antibody)
heavy: not shown
light: B3 light with L4M, S14T, D17E, Q18P, K50Q, L88V, F92Y, S107T

Kd [2]: 282 pM
koff [2]: 0.000357 s⁻¹
kon [2]: 1.27e+06 M⁻¹ s⁻¹
IC50 (nM), OX40L blockade assay (luminescence of NFκB-luc2/OX40 Jurkat cells) [1]: 0.2 nM
IC50(µg/mL), OX40L blockade assay (luminescence of NFκB-luc2/OX40 Jurkat cells) [1]: 0.03 µg/mL
B4: anti-OX40L antibody Hu3F07 (antibody, human IgG4 S228P, kappa, V domains shown)
VH: QVQLVQSGAEVKKPGASVKVSCKASGFTFPDYWMHWVRQAPGQGLEWMGEIDPPNGRTNYNEKFKSRVTMTRDTSISTAYMELSRLRSDDTAVYYCARGIYYVDYWGQGTTVTVSS
VL: B5 VL with L4M, S14T, D17E, Q18P, K50Q, L88V, F92Y, F101P, S105G
notes: Humanized; IgG4 S228P / kappa

Kd [2]: 295 pM
koff [2]: 0.000498 s⁻¹
kon [2]: 1.69e+06 M⁻¹ s⁻¹
IC50 (nM), OX40L blockade assay (luminescence of NFκB-luc2/OX40 Jurkat cells) [1]: 0.41 nM
IC50(µg/mL), OX40L blockade assay (luminescence of NFκB-luc2/OX40 Jurkat cells) [1]: 0.061 µg/mL
B6: anti-OX40L antibody 10H07 (antibody, human IgG4 S228P, kappa, V domains shown)
VH: QVYLQQSGAELVKPGASVKLSCKASGYTFTDYWMHWVKQRPGQGLEWIGEIDPGNGRTNYNEKFKNKATLSVDKSSNTAYMQFSSLTSEDSAVFYCASEGAGRGFPYWGQGTLVTVSA
VL: B5 VL with I2V, S7T, F101W, S105G
notes: Chimeric; IgG4 S228P / kappa

Reference: US20240270859A1 (HK INNO N, published 2024)
